Assay results published in PMC3471833.

Target: human complement C1 esterase inhibitor (human) (UniProt P05155)
Chain of UniProt P05155 (P05155 23-500): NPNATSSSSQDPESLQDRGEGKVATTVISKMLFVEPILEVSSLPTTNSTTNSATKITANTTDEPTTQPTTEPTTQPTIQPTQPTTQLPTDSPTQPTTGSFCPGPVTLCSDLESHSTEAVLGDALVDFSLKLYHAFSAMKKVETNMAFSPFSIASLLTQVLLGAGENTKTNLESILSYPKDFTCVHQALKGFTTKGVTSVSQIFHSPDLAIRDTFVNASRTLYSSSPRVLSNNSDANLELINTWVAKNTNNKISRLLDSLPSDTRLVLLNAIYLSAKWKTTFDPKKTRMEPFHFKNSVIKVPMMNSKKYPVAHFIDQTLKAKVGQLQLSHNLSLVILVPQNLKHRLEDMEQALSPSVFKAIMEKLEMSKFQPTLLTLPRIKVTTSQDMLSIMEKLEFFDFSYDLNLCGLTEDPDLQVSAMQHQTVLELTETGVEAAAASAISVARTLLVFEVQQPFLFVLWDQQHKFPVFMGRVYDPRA

- percentage of dead E. coli BL21 (Live/Dead staining) after antibody 2E4 and human complement plasma treated with OSCS (25.5% without GAG, 26.5% with CSA): 8%
Substance: Activated C1s (enzyme)
